Experimental data taken from patent publication US20230128688A1, “DIRECTED CONJUGATION TECHNOLOGIES” (KLEO PHARMACEUTICALS, INC., priority 2019, published 2023).

Biological target: T cell receptor (TCR)/CD3 on effector Jurkat T cells
Experiment: cell-based or functional assay

## III-1 (CD20×CD3; rituximab×SP34 scFv) (bispecific antibody)
  EC50 of T cell activation (NFAT-RE luciferase luminescence in Jurkat effector cells), effector only condition: > 10 nM
  EC50 of T cell activation (NFAT-RE luciferase luminescence in Jurkat effector cells), effector+target (Daudi) condition: 0.1 nM
